Data as given in CN114591427A (SHENZHEN LIGHT AND BIOTECHNOLOGY CO LTD; GUANGDONG PEOPLES …, dated 2022).

Molecular target: T1, MPT32蛋白 in protein extracts of clinical samples of tuberculosis patients (结核分枝杆菌 (Mycobacterium tuberculosis), UniProt P9WIR7 40-325)
T1 construct: Native antigen detected by western blot in patient samples; also called 结核分枝杆菌MPT32蛋白; 抗原蛋白
T1 sequence (looked up): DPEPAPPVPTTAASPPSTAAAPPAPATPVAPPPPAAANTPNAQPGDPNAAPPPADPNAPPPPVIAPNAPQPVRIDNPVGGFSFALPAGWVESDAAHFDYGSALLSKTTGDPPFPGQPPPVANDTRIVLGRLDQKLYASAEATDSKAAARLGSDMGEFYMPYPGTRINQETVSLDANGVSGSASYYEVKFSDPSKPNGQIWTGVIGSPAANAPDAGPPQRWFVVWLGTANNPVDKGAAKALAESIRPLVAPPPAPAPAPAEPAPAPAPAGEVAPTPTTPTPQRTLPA
Test: western blot of protein extracts of clinical samples

B1: 鼠抗MPT32蛋白单克隆抗体 (secreted by hybridoma cell line 13B12, CCTCC NO:C2021305) (antibody, V domains shown)
VH: QVQLQQSGAELVKPGASVKMSCKASGFTFTSYWINWVKQRPGQGLEWIGDLYPGRGITNYNEKFKPKATLTLDTSSSTAYMQLSSLTSEDSAVYYCSTGPYWGQGTILTVSS
VL: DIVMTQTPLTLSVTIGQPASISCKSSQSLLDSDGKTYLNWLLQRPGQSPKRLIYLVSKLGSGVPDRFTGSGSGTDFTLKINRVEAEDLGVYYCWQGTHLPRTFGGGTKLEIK
notes: also called 鼠抗MPT32单克隆抗体; MPT32蛋白抗体
B1: binds.
